What was measured:
Format in all cases: binding
Conditions in all cases: Example 14
[1] = molecular target: T1, His-EK-ratGal3 (Rattus norvegicus, UniProt P08699); assay: Affinity kinetics to rat Gal3 (Biacore T200)
T1 sequence (P08699 1-262): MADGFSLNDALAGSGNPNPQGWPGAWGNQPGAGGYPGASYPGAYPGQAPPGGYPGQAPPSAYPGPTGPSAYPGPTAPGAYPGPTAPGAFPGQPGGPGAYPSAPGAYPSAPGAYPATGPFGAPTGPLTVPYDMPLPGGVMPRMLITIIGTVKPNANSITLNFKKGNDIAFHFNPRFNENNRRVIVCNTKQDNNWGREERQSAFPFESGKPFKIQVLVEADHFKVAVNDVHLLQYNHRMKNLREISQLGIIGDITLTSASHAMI
Protocol: In each sample cycle, duplicates of the same antibody in HBS-EP+ with 0.5 mg/mL BSA at 10 μg/mL were captured to FC2 and FC4 by flowing at 10.0 μL/min for 120 seconds, and then diluted His-EK-ratGal3 in HBS-EP+ with 0.5 mg/mL BSA was injected to all 4 flow cells at 30.0 μL/min for 180 seconds, followed by dissociation for 240 seconds. A dilution series of His-EK-ratGal3 started from 300 nM, and was 1:3 diluted for 6 points. FC1 and FC3 were used as reference flow cells, and their sensograms were subtracted from FC2 and FC4 respectively to reduce non-specific binding background. Also, an additional sample cycle at 0 nM analyte was run, and its sensogram was subtracted from those of non-zero nM cycles to address machine drifts and bulk shifts. The data were analyzed by Biacore Evaluation software version 2.0. The binding affinities were characterized by fitting the kinetic sensograms to a monovalent binding model (1:1 binding).
(§1) The affinity of Gal3 binding to antibody was determined by acquiring real time Ligand:Analyte binding kinetics data and fitting the data with a 1:1 monovalent binding model. The kinetic evaluation procedure determines association and dissociation constants by fitting the experimental data to a 1:1 interaction model between analyte A and ligand B:
(§2) The affinity KD is the result of Kd divided by Ka.
(§3) The protocol disclosed in Example 9 was generally followed.

[2] = molecular target: T2, human Gal3 (Homo sapiens, UniProt P17931); assay: Affinity kinetics to human Gal3 (Carterra LSA)
T2 construct: 6xHis (linker-spaced) (C); purchased AcroBio (Acro Biosystems) GA3-H5129
T2 sequence (P17931 whole entry): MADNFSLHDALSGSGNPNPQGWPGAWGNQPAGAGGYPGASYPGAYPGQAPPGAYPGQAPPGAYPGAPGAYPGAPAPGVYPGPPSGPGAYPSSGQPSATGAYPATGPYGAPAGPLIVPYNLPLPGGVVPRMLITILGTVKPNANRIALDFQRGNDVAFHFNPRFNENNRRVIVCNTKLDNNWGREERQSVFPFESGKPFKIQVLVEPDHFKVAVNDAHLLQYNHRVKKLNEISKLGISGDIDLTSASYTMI
Protocol: (§4) Kinetics experiments were performed on a Carterra LSA at 25° C.
(§5) Then, a dilution series of Gal3 (2, 4, 8, 16, 32, 64, and 128 nM) in HBSTE with 0.5 mg/mL BSA was injected to the whole array for 300 seconds to allow association followed by dissociation for 240 seconds. The kinetics constants were calculated by the software NextGenKIT.
as §1, §2, §3

[3] = molecular target: His-EK-cynoGal3; assay: Affinity kinetics to cynomolgus Gal3 (Biacore T200)
Protocol: In each cycle, duplicates were made by loading the same antibody to flow cells FC2 and FC4, and then analyte was flowed to all 4 flow cells. The detection was done pairwise, FC2-FC1 and FC4-FC3, to subtract non-specific binding of analyte to the surface. A cycle of 0 nM analyte was run prior to a dilution series of analyte. The 0 nM raw data were subtracted from each non-zero concentration data to minimize machine drifts. The data were analyzed by Biacore Evaluation software version 2.0. The binding affinities were characterized by fitting the kinetic sensograms to a monovalent binding model (1:1 binding).
as §1, §2, §3

[4] = molecular target: mouse Gal3 (Mus musculus, UniProt P16110); assay: Affinity kinetics to mouse Gal3 (Carterra LSA)
Chain of mouse Gal3 (P16110 whole entry): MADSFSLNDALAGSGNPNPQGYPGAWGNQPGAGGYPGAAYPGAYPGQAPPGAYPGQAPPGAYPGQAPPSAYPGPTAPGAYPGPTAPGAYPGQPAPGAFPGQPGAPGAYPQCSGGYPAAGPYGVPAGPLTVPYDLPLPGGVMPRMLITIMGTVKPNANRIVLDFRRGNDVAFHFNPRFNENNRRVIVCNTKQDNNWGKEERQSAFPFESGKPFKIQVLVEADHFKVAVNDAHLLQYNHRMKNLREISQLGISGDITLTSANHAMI
Protocol: as §4, §5, §1, §2, §3

Synagis: negative control antibody, hIgG4 backbone [reference compound]
average affinity to His-EK-ratGal3 [1]: did not bind
average affinity to human Gal3 [2]: did not bind
affinity to His-EK-cynoGal3 [3]: did not bind
average affinity to mouse Gal3 [4]: did not show any binding activity
